The text below walks through data of patent US20250002599A1 (NOVAROCK BIOTHERAPEUTICS, published 2025).

The target of assay [1] is T1, human PD-L1 expressed on the cell surface (HEK293T-PD-L1 cells; Promega artificial APC CHO-K1 cells) (human, UniProt Q9NZQ7 19-290). Kind of assay: cell-based or functional assay.
The target in assay [2] is T2, cynomolgus PD-L1 protein (Acro Biosystems, cat #: PD1-C52H4) (cynomolgus, UniProt Q9NZQ7 19-238 (human entry)).
T2 construct: Bought protein; also called cyno PD-L1
T2 sequence (Q9NZQ7 other isoform, or with tags, fused parts or gaps limits assumed): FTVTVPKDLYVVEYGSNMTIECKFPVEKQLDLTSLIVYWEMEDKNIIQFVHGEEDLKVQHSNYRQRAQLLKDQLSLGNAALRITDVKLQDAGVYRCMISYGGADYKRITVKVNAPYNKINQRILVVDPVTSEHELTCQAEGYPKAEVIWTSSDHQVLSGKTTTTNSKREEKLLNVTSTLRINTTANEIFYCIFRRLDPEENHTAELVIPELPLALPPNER
The assay can be described thus: ELISA, PD-L1 protein coated on the plate, OD 405. A general note: In an ELISA, binding on a coated surface is turned into a signal by an enzyme label.

Assay [3] deals with T3, human recombinant PD-L1 protein (Acro Biosystems, cat #: PD1-H5229) (human, UniProt Q9NZQ7 19-238).
T3 construct: Bought protein; also called human PD-L1; recombinant human PD-L1
T3 sequence (Q9NZQ7 19-238 limits assumed): as the sequence (Q9NZQ7 other isoform, or with tags, fused parts or gaps limits assumed) above, with T33A, S34A, N62S, Q68R, R82Q, L173F, A185T, I192T, L215H counted along it
The assay can be described thus: ELISA, PD-L1 protein coated on the plate, OD 405.

For assay [4], the target named is T4, mouse PD-L1 protein (Acro Biosystems, cat #: PD1-M5220) (mouse, UniProt Q9EP73 19-238).
T4 construct: Bought protein; also called murine PD-L1
T4 sequence (Q9EP73 19-238 limits assumed): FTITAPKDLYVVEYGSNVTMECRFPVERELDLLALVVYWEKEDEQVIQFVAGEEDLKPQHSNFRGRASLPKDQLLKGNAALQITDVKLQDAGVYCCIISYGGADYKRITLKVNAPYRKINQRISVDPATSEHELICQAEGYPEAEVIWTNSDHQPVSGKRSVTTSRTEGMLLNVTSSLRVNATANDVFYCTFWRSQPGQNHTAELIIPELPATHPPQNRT
Kind of assay: ELISA, PD-L1 protein coated on the plate, OD 405.

The target in assay [5] is T1, human PD-L1 expressed on the cell …. The assay can be described thus: immunofluorescence imaging on HEK293T-PD-L1 cells.
The target of assay [6] is T3, human recombinant PD-L1 protein (Acro …). Kind of assay: SPR (Biacore3000), antibody captured by anti-human IgG on CM5, PD-L1 as analyte, 1:1 binding with mass transfer.
For assay [7], the target named is T2, cynomolgus PD-L1 protein (Acro …). Kind of assay: ELISA, PD-L1 protein coated on the plate, OD 405. The source holds these as a separate data set.
In assay [8] the target is T3, human recombinant PD-L1 protein (Acro …). Kind of assay: ELISA, PD-L1 protein coated on the plate, OD 405. This is another data set of the same source.
Assay [9] deals with T4, mouse PD-L1 protein (Acro Biosystems, …). Kind of assay: ELISA, PD-L1 protein coated on the plate, OD 405. The source holds these as a separate data set.
In assay [10] the target is T5, cynomolgus CD137 expressed on the cell surface of HEK293T cells (cynomolgus, UniProt Q07011 24-255 (human entry)).
T5 construct: also called cyno CD137
T5 chain: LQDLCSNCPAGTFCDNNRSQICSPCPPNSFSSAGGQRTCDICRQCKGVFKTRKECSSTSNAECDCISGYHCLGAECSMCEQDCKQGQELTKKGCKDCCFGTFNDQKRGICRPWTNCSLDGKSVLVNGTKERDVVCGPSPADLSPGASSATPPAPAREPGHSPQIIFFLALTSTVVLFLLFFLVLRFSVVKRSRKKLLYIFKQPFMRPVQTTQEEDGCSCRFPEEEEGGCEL
The assay can be described thus: immunofluorescence imaging on HEK293T cells expressing cynomolgus CD137.

Assay [11] addresses T6, human CD137 expressed on the cell surface of HEK293T cells (human, UniProt Q07011 24-255).
T6 construct: Stably or transiently transfected HEK293T cells; also on HEK293T and Jurkat T NFκB reporter cells; also called human CD137 (WT); 4-1BB
The assay can be described thus: immunofluorescence imaging on HEK293T cells expressing human CD137.

The target in assay [12] is T7, mouse CD137 expressed on the cell surface of HEK293T cells (mouse, UniProt P20334 24-256).
T7 construct: whole, on cells; also called murine CD137; mouse 4-1BB
T7 sequence (P20334 24-256): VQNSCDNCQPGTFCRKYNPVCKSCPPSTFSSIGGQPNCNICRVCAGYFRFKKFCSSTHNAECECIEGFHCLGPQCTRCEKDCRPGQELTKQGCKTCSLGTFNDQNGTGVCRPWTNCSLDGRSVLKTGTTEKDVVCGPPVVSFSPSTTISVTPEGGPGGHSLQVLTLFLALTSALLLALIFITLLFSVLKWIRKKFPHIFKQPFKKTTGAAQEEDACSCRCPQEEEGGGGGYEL
Kind of assay: immunofluorescence imaging binding assay on mouse CD137-expressing HEK293T cells.

For assay [13], the target named is T6, human CD137 expressed on the cell …. The assay can be described thus: immunofluorescence imaging binding assay on human CD137-expressing HEK293T cells.
The target in assay [14] is T7, mouse CD137 expressed on the cell …. The assay can be described thus: immunofluorescence imaging binding assay on mouse CD137-expressing HEK293T cells. The source holds these as a separate data set.
Assay [15] deals with T8, human CD137 (Sino Biological, cat #10041-H08H) (human, UniProt Q07011 24-186).
T8 construct: Bought protein used as the analyte in SPR; also called CD137 antigen in Biacore
T8 sequence (Q07011 24-186 limits assumed): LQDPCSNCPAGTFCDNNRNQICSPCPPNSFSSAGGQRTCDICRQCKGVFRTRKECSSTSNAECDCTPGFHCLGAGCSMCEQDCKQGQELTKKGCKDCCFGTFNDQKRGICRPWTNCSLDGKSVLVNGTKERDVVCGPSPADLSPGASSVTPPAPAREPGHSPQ
Kind of assay: SPR (Biacore3000), antibody captured by anti-human IgG on CM5, CD137 as analyte, 1:1 binding with mass transfer. In general terms: SPR reads the build-up and loss of mass on a sensor chip optically.

Assay [16] concerns the target T7, mouse CD137 expressed on the cell …. Kind of assay: immunofluorescence imaging binding assay on mouse CD137-expressing HEK293T cells. This is another data set of the same source.

Numbering of substitutions follows the chain as printed. Read-outs that look alike come from different tables or passages of the source.

T1 sequence (Q9NZQ7 19-290 limits assumed): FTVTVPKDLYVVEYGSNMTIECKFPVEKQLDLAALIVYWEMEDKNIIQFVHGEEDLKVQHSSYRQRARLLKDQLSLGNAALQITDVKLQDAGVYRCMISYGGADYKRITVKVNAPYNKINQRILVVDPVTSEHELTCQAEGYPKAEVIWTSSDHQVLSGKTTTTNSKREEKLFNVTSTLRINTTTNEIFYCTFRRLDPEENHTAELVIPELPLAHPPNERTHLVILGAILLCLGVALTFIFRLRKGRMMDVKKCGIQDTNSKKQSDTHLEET

B1: 1923Ab2 (antibody, V domains shown)
VH: QVQLVESGGGVVQPGRSLRLSCAASGFTFRNYGMHWVRQAPGKGLEWVAVIWFDGINKYYADSVKGRFTISRDNSENTLYLQMNSLRAEDTAVYYCARDRSSSPFDFWGQGTLVTVSS
VL: EIVMTQSPATLSLSPGERATLSCRASQNFSNNYLSWYQQTPGQAPRLLIYGASTRATGIPARFSGSGSGTDFTLTISSLQPEDFAVYYCQQDYNLFTFGPGTKVDIK
notes: Fully human variable regions from Trianni mice; Constant region as tested not clear: hybridoma-derived (mouse constant) or recombinant human IgG1 / IgG1 variant with human kappa; also called PD-L1 monospecific 1923Ab2; anti-PD-L1 antibody 1923Ab2
For the molecule B1, in assay [1], the “IC50, PD-1/PD-L1 blockade luciferase reporter assay” value turned out to be 0.9 nM. In addition, the EC50 – broadly, the concentration giving half of the maximal effect – in assay [2] was 0.08 nM; in assay [3] it was 0.09 nM. Further, the binding result in assay [4] is “no binding”.

B2: 1923Ab3 (antibody, V domains shown)
VH: QVQLVQSGAEVKKPGASVKVSCKASGYTFTSYDINWVRQATGQGLEWMGWMNPNSGITGYAQRFQGRVTMTRDTSISTAYMELSSLRSEDTAVYYCARHRWGKGYLDLWGRGTLVTVSS
VL: EIVMAQSPATLSLSPGERATLSCRASQSVSSSYLSWFQQKPGQAPRLLIYGASTRATGIPARFGGSGSGTDFTLTISSLQPEDFAVYYCQQDYNLPYTFGQGTKLEIK
notes: also called PD-L1 monospecific 1923Ab3; anti-PD-L1 antibody 1923Ab3
With B2, the EC50 in [5] worked out at 0.18 nM; in assay [7], 0.07 nM; in [8], 0.08 nM. Also, the “IC50, PD-1/PD-L1 blockade luciferase reporter assay” value in [1] was found to be 0.43 nM. In addition, in [6], the Kd (as a rule, the free concentration of one partner at which half of the binding sites on the other are occupied at equilibrium, for simple one-to-one binding) is 2.95 nM. For the same molecule, the off-rate (koff) – broadly, a measure of how fast the partners let go of each other – in assay [6] amounted to 0.0024 s⁻¹. For the same molecule, the kon (usually a measure of how fast the partners come together) in assay [6] amounted to 814000 M⁻¹ s⁻¹. Also, the binding result in assay [9] was “no binding”.

B3: 1923Ab5 (antibody, human IgG1, V domains shown)
VH: QVQLVESGGGVVQPGRSLRLSCAASGFTFSSYGMHWVRQAPGKGLEWVAVIWYDGSNEYYADSVKGRFTISRDNSKNTLYLQMNSLRAEDTAVYYCARERWQWLVLFDYWGQGTLVTVSS
VL: B2 VL with M4L, A5T, S28T, V29I, S30T, F37Y, G64S, V86L, Y88F, Y93F
notes: also called CD137 monospecific 1923Ab5
On to B3, for which the half-maximal effective concentration (EC50) in assay [10] is 2.77 nM; in [11], 1.62 nM; in [13], 1.6 nM. Moreover, the binding result in [12] is recorded as “no binding”.

B4: 1923Ab6 (antibody, human IgG1, V domains shown)
VH: EVHLLESGGGLVQPGGSLRLSCAASGFTFSSYAMGWVRQAPGKGLEWVSIIGGGGGSTYYADSVKGRFTISRDNSKNTLYLQMNSLRAEDTAVYYCAKVGYSGTYGGWFDPWGQGTLVTVSS
VL: DIQMTQSPSSLSASIGDRVAITCRASQGISNYLAWFQQKPGKAPKSLIYAASSLQSGVPSKFSGSGSGTDFTLTISSLQPEDFATYYCQQYNSYPLTFGGGTKVEIK
notes: also called CD137 monospecific 1923Ab6
With B4, the EC50 in assay [10] was determined as 4.23 nM; in [11] it was 10.5 nM; in [13], 11 nM. The binding result in [14] is on record as “no binding”.

B5: 1923Ab4 (antibody, V domains shown)
VH: QVQLVESGGGVVQPGRSLRLSCAASGFTFSNYGMHWVRQAPGKGLEWVAIIWYDGINKYYADSVKGRFTISRDNSKNTLYLQMNSLKAEDTAVYYCARDQDYDILTGYYKEDYFDFWGQGTLVTVSS
VL: SYELTQPPSVSVSPGQTARITCSGDALPKKYAYWYQQKSGQAPVLVIYEDSKRPSGIPERFSGSSSGTMATLTISGAQVEDEADYYCYSTDSSGNRVFGGGTKLTVL
notes: also called CD137 monospecific 1923Ab4; anti-CD137 1923Ab4
For the molecule B5, in [10], the concentration giving a half-maximal response (EC50) came out at 0.22 nM. For the same molecule, in assay [11], the EC50 is 0.29 nM. Also, in assay [15], the affinity, expressed as Kd, was 7.18 nM; the koff came to 0.0219 s⁻¹; the kon amounted to 3.05e+06 M⁻¹ s⁻¹. Moreover, the binding result in [16] is recorded as “no binding”.
